Test results: the supplement of paper PMC9170038

System: MS2 coat protein
Assay: apparent KD of MS2 coat protein; designed switch direction (-1 OFF switch, 1 ON switch): 1; higher = weaker reporter binding
In short: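 The apparent KD reported per design is the median over clusters of curve fits to normalised cluster fluorescence. The RNA switches were transcribed on Illumina chips by stalled E. coli RNA polymerase. SNAP-549-labelled MS2 coat protein was titrated from 0.7 or 1.5 nM, doubling up to 3 µM, in Tris-HCl pH 7.5 buffer containing KCl, MgCl2, BSA, DTT, tRNA and Tween-20, with no input, 200 uM small-molecule ligand, or an oligonucleotide input.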

[1] = input ligand: microRNA oligo, concentration not stated
[2] = Eterna round: R95, input ligand: FMN 200 uM
[3] = Eterna round: R95, input ligand: microRNA oligo, concentration not stated
[4] = Eterna round: R95, input ligand: none

GAGAGACGAUUAGGAUAUCCGGUGAUAAUGAUAGGAGAAGGAAUUGACAUGAGGAUCACCCAUGUAGGAAUAAUCCAGAGAGAG [Parity 25 - Jieux - Same State NG 1] (Eterna round: R96, puzzle: Same State NG 1)
apparent KD of MS2 coat protein (input ligand: FMN 200 uM): 51.5 nM
apparent KD of MS2 coat protein [1]: 28.5 nM
apparent KD of MS2 coat protein (input ligand: none): 48.8 nM

UGUUGUAUUACAGGAUAUCUAGUAUUAUUAUUUAGAGAAGGGUAUUCACAUGAGGAUCACCCAUGUAUAUACGAGGAAGUUGUG [JMF's solution 39] (Eterna round: R96, puzzle: Same State NG 1)
apparent KD of MS2 coat protein [1]: 28.2 nM

CACAAUCUAUCUGAGGAUAUCAUGAAAAAAACAUGAGGAUCACCCAUGUGCAGGAAAACUGCAUAUGAGAAGGCAGAUAGAUUGU [salish99_SS2_r3_015] (puzzle: Same State 2)
apparent KD of MS2 coat protein [2]: 28.3 nM
apparent KD of MS2 coat protein [3]: 720 nM
apparent KD of MS2 coat protein [4]: 913 nM

GUGGUCAGACAUGAGGAUCACCCAUGUGGAAUAAAUAAGGACUAGGAUAUUUAAUAUAGGAUAUAAAAGAAGGAGUGGUUGGUG (Eterna round: R96, puzzle: Same State NG 3)
apparent KD of MS2 coat protein (input ligand: FMN 200 uM): 85.1 nM
apparent KD of MS2 coat protein [1]: 44.1 nM
apparent KD of MS2 coat protein (input ligand: none): 59.6 nM

GUUAUACAUGAGGAUCACCCAUGUCAAUGUAGUCGAGGAUAUGGGCAGCUAUGUAGCGUACUAGAAGGCGAAGAGU [JL-ss1-3.13 ViennaUCT mod] (puzzle: Same State 1)
apparent KD of MS2 coat protein [2]: 68.4 nM
apparent KD of MS2 coat protein [3]: 43.1 nM
apparent KD of MS2 coat protein [4]: 103 nM

ACCCAAAGUAUAUGGGAACAAGCUUUUUAACAUGAGGAUCACCCAUGUACUCGUCUUGUAAGCAGUCGAAAGACUGC [Sensor 100 - 1] (puzzle: Sensor for hsa-mir-208a)
apparent KD of MS2 coat protein [2]: 312 nM
apparent KD of MS2 coat protein [3]: 17.4 nM
apparent KD of MS2 coat protein [4]: 368 nM

GACAAUCUAUCUGAGGAUAUCAUGAAAAAAACAUGAGGAUCACCCAUGUGCAGGAAAACUGCAUAUGAGAAGGCAGAUAGAUUGC [salish99_SS2_r3_012] (Eterna round: R96, puzzle: Same State 2)
apparent KD of MS2 coat protein [1]: 429 nM

GCUGCAAGGGCAGGAUAUGGGUCCAGAGCGCAAGUGCGCCCUGGUACAUGAGGAUCACCCAUGUCCCAGAAGGGCCCAAGCAGC [Vetierribi] (Eterna round: R96, puzzle: Same State NG 2)
apparent KD of MS2 coat protein (input ligand: FMN 200 uM): 12.9 nM
apparent KD of MS2 coat protein [1]: 68.9 nM
apparent KD of MS2 coat protein (input ligand: none): 87.6 nM

GUUAAACAUGAGGAUCACCCAUGUCAAUGUAGUCGAGGAUAUGGGCAGCUAUGAGGCGUACUAGAAGGCGAAGAGU [Mat - Same State 1 - Mod of JL - D12] (Eterna round: R96, puzzle: Same State 1)
apparent KD of MS2 coat protein [1]: 224 nM

AUAAUAAUAAGUGAGGAUAUGUUGAUAAAGACAUGAGGAUCACCCAUGUGAAAUAAAAUAAUAAUACAGAAGGCACAAUAAUAAA [JMF's solution 2] (puzzle: Same State 2)
apparent KD of MS2 coat protein [2]: 25.6 nM
apparent KD of MS2 coat protein [3]: 38.7 nM
apparent KD of MS2 coat protein [4]: 27.9 nM

UUUAGUUGCGGGCAGGAUAUGUAUUAAUAUACAUGAGGAUCACCCAUGUGAGAUCGAAUAGAUCUACAGAAGGGCCAAUCGCGAC [Laonerce - 25] (puzzle: Same State 2)
apparent KD of MS2 coat protein [2]: 19.8 nM
apparent KD of MS2 coat protein [3]: 133 nM
apparent KD of MS2 coat protein [4]: 188 nM

AACAAUCUAUCUGAGGAUAUCAUGUAAUAAACAUGAGGAUCACCCAUGUGCAGGAAAACUGCAUAUGAGAAGGCAGAUAGAUUGA [salish99_ss2_r3_030] (puzzle: Same State 2)
apparent KD of MS2 coat protein [2]: 182 nM
apparent KD of MS2 coat protein [3]: 134 nM
apparent KD of MS2 coat protein [4]: 180 nM

UUUAGCGUUACAGGAUAUGGUGAGGAUUACCCACUAGAAGGGUAAACAUGUGCGUCGUACAUGAGGAUCACCCAUGUAGGGCGU (Eterna round: R96, puzzle: Same State NG 1)
apparent KD of MS2 coat protein (input ligand: FMN 200 uM): 20.6 nM
apparent KD of MS2 coat protein [1]: 15.5 nM
apparent KD of MS2 coat protein (input ligand: none): 20.6 nM

GAUAGACAUGAGGAUCACCCAUGUGACAAAACCACAGGAUAUCAUGCAGGCGUACCUGCAUGAGAAGGGUGAGACU [Ceriinaqu] (puzzle: Same State 1)
apparent KD of MS2 coat protein [2]: 29.7 nM
apparent KD of MS2 coat protein [3]: 35.3 nM
apparent KD of MS2 coat protein [4]: 22 nM

GCUCUACAUGAGGAUCACCCAUGUCCGAACGCGCGAGGAUAUGCAUGGGCGAAAGCUGGUGCAGAAGGCGUGGGAC [2theCorner] (puzzle: Same State 1)
apparent KD of MS2 coat protein [2]: 315 nM
apparent KD of MS2 coat protein [3]: 202 nM
apparent KD of MS2 coat protein [4]: 358 nM

UUGCCGCGGGUAGGAUAUGGUCACACUUCUAAAACAUGAGGAUCACCCAUGUCCGACACAUAAAGCCAGAAGGACCCGCGGCUC [Erisriin] (Eterna round: R96, puzzle: Same State NG 2)
apparent KD of MS2 coat protein (input ligand: FMN 200 uM): 18.2 nM
apparent KD of MS2 coat protein [1]: 47.4 nM
apparent KD of MS2 coat protein (input ligand: none): 77.3 nM

UUGAAGAAUUAAGGAUAUUGAAUACAUAUGUUUAACAUGAGGAUCACCCAUGUGGGUUGCGGUGUCGAGAAGGUAAAAUAAUAG [Mat - same State NG 2 - JL mod - D95] (Eterna round: R96, puzzle: Same State NG 2)
apparent KD of MS2 coat protein (input ligand: FMN 200 uM): 194 nM
apparent KD of MS2 coat protein [1]: 124 nM
apparent KD of MS2 coat protein (input ligand: none): 329 nM

AUUUAACAAGCUUUUUGCUCGUCUUAUAAACAUGAGGAUCACCCAUGUAAUAGCGUGAGAGUAAAUUAUUAAAUAAU [JMF 91] (puzzle: Sensor for hsa-mir-208a)
apparent KD of MS2 coat protein [2]: 13 nM
apparent KD of MS2 coat protein [3]: 39.9 nM
apparent KD of MS2 coat protein [4]: 11.9 nM

CUCCCACGUGCACAGGAUAUGCCGGGAUGCACAUGAGGAUCACCCAUGUAAUCCUGAAAAUAAAAGCAGAAGGGUGAUCAUGGGU [Teestege] (puzzle: Same State 2)
apparent KD of MS2 coat protein [2]: 36.1 nM
apparent KD of MS2 coat protein [3]: 11.6 nM
apparent KD of MS2 coat protein [4]: 10.2 nM

AUUAAUUAAUUAAUACAUGAGGAUCACCCAUGUAAUAAGAUCUAGGAUAUCAGCUCGAAUAGAGCUGAGAAGGAGAUCACAUGU [SSNG3/17-A1] (Eterna round: R96, puzzle: Same State NG 3)
apparent KD of MS2 coat protein [1]: 31.1 nM

GGUCCAGCCUGAGCUGGACAAAAGCAUGUACAUGAGGAUCACCCAUGUUCAUGUACAAGCUUUUUGCUCGUCUUAAC [salish99_208a_r3_038] (puzzle: Sensor for hsa-mir-208a)
apparent KD of MS2 coat protein [2]: 530 nM
apparent KD of MS2 coat protein [3]: 16.9 nM
apparent KD of MS2 coat protein [4]: 648 nM

ACAUGAGAUUGAGGAUAUAUUGUACCUACAUGUGACAUGAGGAUCACCCAUGUGGUAAGUAUGACAUAGAAGGCAGAGAUAUGU [Equivalance 84 - Jieux - Same State NG 2] (Eterna round: R96, puzzle: Same State NG 2)
apparent KD of MS2 coat protein (input ligand: FMN 200 uM): 67.7 nM
apparent KD of MS2 coat protein [1]: 107 nM
apparent KD of MS2 coat protein (input ligand: none): 75.3 nM

CUAUCUACAGGUUGCAGUGCUCGUCUUAUACAUGAGGAUCACCCAUGUUAUAGCCCGGUGCUUGCGCUGGGCUGAUU [JL ViennaUCT Tearor mod 2] (Eterna round: R96, puzzle: Sensor for hsa-mir-208a)
apparent KD of MS2 coat protein (input ligand: FMN 200 uM): 40.9 nM
apparent KD of MS2 coat protein [1]: 16.4 nM
apparent KD of MS2 coat protein (input ligand: none): 41.1 nM

AGUCCAGCCUGAGCUGGACAAAAGCAUGUACAUGAGGAUCACCCAUGUUCAUGUACAAGCUUUUUGCUCGUCUUGCC [salish99_208a_r3_107x] (Eterna round: R96, puzzle: Sensor for hsa-mir-208a)
apparent KD of MS2 coat protein (input ligand: FMN 200 uM): 774 nM
apparent KD of MS2 coat protein [1]: 15.5 nM
apparent KD of MS2 coat protein (input ligand: none): 623 nM

AGUCCAGCCUGAGCUGGACAAAAGCAUGUACAUGAGGAUCACCCAUGUCAUGUACAAGUUUUUUGCUCGUUUUAAUA [Zipper 49 - 18] (puzzle: Sensor for hsa-mir-208a)
apparent KD of MS2 coat protein [2]: 48.9 nM
apparent KD of MS2 coat protein [3]: 12.2 nM
apparent KD of MS2 coat protein [4]: 52 nM

AGUCCAGCCUGAGCUGGACAAAAGCAUGUACAUGAGGAUCACCCAUGUUCAUGUACAAGCUUUUUGCUCGUCUUACA [salish99_208a_r3_076] (puzzle: Sensor for hsa-mir-208a)
apparent KD of MS2 coat protein [2]: 467 nM
apparent KD of MS2 coat protein [3]: 14.4 nM
apparent KD of MS2 coat protein [4]: 483 nM

AGCGAGAUAGGCAAGGAUAUGUAGUUUGGCACAUGAGGAUCACCCAUGUCAAUCCAUUUUUUGGAACAGAAGGUGCAUUCUCUUU [ak fourth] (puzzle: Same State 2)
apparent KD of MS2 coat protein [2]: 33.4 nM
apparent KD of MS2 coat protein [3]: 12.2 nM
apparent KD of MS2 coat protein [4]: 19.5 nM

GCUACGGCAGUAGGAUAUGUAGGAUAUGGCGAGAGCUAAGCUUGGAAGUCACUUCAGCCAGAAGGACAGAAGGACACCGUGAGG [pwkr ssNG2 2FMN + F9.16] (Eterna round: R96, puzzle: Same State NG 2)
apparent KD of MS2 coat protein (input ligand: FMN 200 uM): 125 nM
apparent KD of MS2 coat protein [1]: 22.5 nM
apparent KD of MS2 coat protein (input ligand: none): 24.7 nM

UAUUAAUCUGUAGGAUAUCUAGGAUAUGGACGAGGAUCACCCGAGCAGCAUCAGCGCACCAGAGGAGAGAAGGACGCUUUGGUG [pwkr ssNG2 2F5 2FMN.2] (Eterna round: R96, puzzle: Same State NG 2)
apparent KD of MS2 coat protein (input ligand: FMN 200 uM): 325 nM
apparent KD of MS2 coat protein [1]: 208 nM
apparent KD of MS2 coat protein (input ligand: none): 367 nM

AUAAUAAGGACAGGAUAUGGGAAAGGAAGUGUACUAGAAGGGUCGAGAAGACCAGAACAUGAGGAUCACCCAUGUGAUGGGAAA [PowerStrip SSNG 1.28] (Eterna round: R96, puzzle: Same State NG 1)
apparent KD of MS2 coat protein (input ligand: FMN 200 uM): 21.7 nM
apparent KD of MS2 coat protein [1]: 23.3 nM
apparent KD of MS2 coat protein (input ligand: none): 36.1 nM

CCAUAACAGUGAGGAUAUUGUUGCGAUAAGUGACGAGAAGGCAUUCAUGUGAAAUAAACAUACAUGAGGAUCACCCAUGUUGUA [Omei SS(NG)1 Bv2] (Eterna round: R96, puzzle: Same State NG 1)
apparent KD of MS2 coat protein (input ligand: FMN 200 uM): 17.9 nM
apparent KD of MS2 coat protein [1]: 19.8 nM
apparent KD of MS2 coat protein (input ligand: none): 26.7 nM

UGGAUCUAGGCUUGCCUGGGUCCAUGCUGACAUGAGGAUCACCCAUGUGCAUCCUACAAGCUUUUUGCUUGUCUGCC (Eterna round: R96, puzzle: Sensor for hsa-mir-208a)
apparent KD of MS2 coat protein (input ligand: FMN 200 uM): 416 nM
apparent KD of MS2 coat protein [1]: 267 nM
apparent KD of MS2 coat protein (input ligand: none): 216 nM
